For this assay, the system named is mouse iPS cells. Description: Modified KCM method: differentiation of mouse iPS cells on collagen into epithelial progenitor/stem cells (immunostaining, flow cytometry of keratin 14-positive cells). It is filed as cell-based. How it is done:
The iPS cells on the SNL feeders were collected by treatment with 0.25% trypsin/EDTA and further pipetted to prepare an iPS cell suspension (single cell suspension). The obtained cell suspension was incubated on a gelatin-coated culture dish for approximately 1 to 2 hours. The supernatant was collected to thereby allow only the feeder cells to adhere to the dish and collect only the iPS cells. The number of the obtained iPS cells was counted. The iPS cells were inoculated at a density of 0.5 to 10×10^3 cells/cm^2 onto a type IV collagen-coated culture dish as described below and cultured at 37° C. for 7 to 28 days in a 5% CO2 atmosphere using a KCM medium shown below. 0.5 nM BMP4, (R&D System) was further added to the KCM medium, and the cells were cultured in the same way as above.
The cells after differentiation induction were examined for the expressions of a basal epithelial cell marker keratin 14, an epithelial progenitor cell/stem cell marker p63, and a corneal epithelial differentiation marker keratin 12 by an immunostaining method. Moreover, keratin 14-positive cells were analyzed by flow cytometry. The immunostaining method and the flow cytometry analysis will be shown in detail below.
After fixation in cold methanol (−30° C./20 min), 5% NST was added to the cells, which were then left at room temperature for 30 minutes for blocking. […]
Background: In flow cytometry, cells or beads pass a laser one at a time.

B1: BMP4: Bone Morphogenetic Protein 4, one of bone morphogenetic factors, belongs to the transforming growth factor-β (TGF-β) superfamily (protein, UniProt P12644 293-408, looked up)
Bone morphogenetic protein 4: SPKHHSQRARKKNKNCRRHSLYVDFSDVGWNDWIVAPPGYQAFYCHGDCPFPLADHLNSTNHAIVQTLVNSVNSSIPKACCVPTELSAISMLYLDEYDKVVLKNYQEMVVEGCGCR
As to B1, the “induction efficiency of differentiation (keratin 14-positive cells, flow cytometry)” value (0.5 nM BMP4 added to KCM medium, day 28, 2.9% without BMP4) worked out at 6.0%. Also, under “BMP4 added to KCM medium, day 28”, the “epithelial induction efficiency (keratin 14-positive and p63-positive cells, immunostaining)” value is recorded as “significantly increased epithelial induction efficiency”.

(Values after patent US20120142103A1, “METHOD FOR INDUCING DIFFERENTIATION INTO EPITHELIAL PROGENITOR CELL/STEM CELL POPULATION AND CORNEAL EPITHELIAL CELL POPULATION FROM INDUCED PLURIPOTENT STEM CELLS” (priority 2010, published 2012).)
